Experimental data reported in patent US20210380703A1 (RIGEL PHARMACEUTICALS, published 2021).
Where a chain is given by its changes, count along the chain named.

B1: 368_F10 (antibody, V domains shown)
VH: EVQLLESGGGLVQPGGSLRLSCAASGFTFSSYGMNWVRQAPGKGLEWVAGINYNSGYTSYADSVKGRFTISRDNSKNTLYLQMNSLRAEDTAVYYCARAANWHDTHLDYWGQGTLVTVSS
VL: DIQMTQSPSSLSASVGDRVTITCRASQSIVSYVNWYQQKPGKAPKLLIYAATSRASGVPSRFSGSGSGTDFTLTISSLQPEDFATYYCQQSYDTPLTFGGGTKVEIK
notes: Group I
B2: 368_G11 (antibody, V domains shown)
VH: B1 VH with S30D, N35H, A49S, T58K, N101T, H106A
VL: B1 VL with V30L, S31T, V33L, Y92D, D93N
notes: Group II
B3: 368_H03 (antibody, V domains shown)
VH: B1 VH with S30D, S31D, G33S, N35H, G50S, S55G, S59G, N101T
VL: B1 VL with V30L, L47V, A51V, A55H, D93S, T94N
notes: Group II
B4: 369_A04 (antibody, V domains shown)
VH: B1 VH with S30D, N35H, G50S, S55G, T58K, N101T
VL: B1 VL with L47V, R54L, T94L
notes: Group II
B5: 369_A12 (antibody, V domains shown)
VH: B1 VH with G33S, N35H, G50S, S59G, N101T
VL: B1 VL with V30L, S31T, V33L, A55H, T94L
notes: Group II
B6: 369_B03 (antibody, V domains shown)
VH: B1 VH with N35H, S55G, H106A
VL: B1 VL with V30L, S31T, L47V, R54L, D93E, T94L
notes: Group I
B7: 369_B07 (antibody, V domains shown)
VH: B1 VH with S30D, N35H, G50N, S55G, T58K, N101T
VL: B1 VL with L47V, R54L, T94L
notes: Group II
B8: 369_B08 (antibody, V domains shown)
VH: B1 VH with S30D, N35H, A49S, G50S, S55G, N101T
VL: B1 VL with V30L, D93E, T94S
notes: Group II
B9: 369_C06 (antibody, V domains shown)
VH: B1 VH with G33S, N35H, A49S, G50S, S55G, T58K, N101T
VL: B1 VL with V30L, T94S
notes: Group II
B10: 369_C09 (antibody, V domains shown)
VH: B1 VH with N35H, A49S, G50S, S55G, S59G, N101T
VL: B1 VL with V33L, L47V, A55H, T94L
notes: Group II
B11: 369_C11 (antibody, V domains shown)
VH: B1 VH with S31D, N35H, S55G, S59G, N101T
VL: B1 VL with V30L, V33L, L47V
notes: Group II
B12: 369_E03 (antibody, V domains shown)
VH: B1 VH with N35H, S55G, N101T
VL: B1 VL with V30L, R54L, D93E, T94N
notes: Group II
B13: 369_G10 (antibody, V domains shown)
VH: B1 VH with N35H, G50S, S55G, H106A
VL: B1 VL with V30L, V33L, L47V, T94S
notes: Group I
B14: 369_H03 (antibody, V domains shown)
VH: B1 VH with G33S, N35H, G50S, T58K, H106A
VL: B1 VL with V33L, A51T
notes: Group I
B15: 370_B01 (antibody, V domains shown)
VH: B1 VH with S30D, S31D, N35H, A49S, S55G, T58K, H106A
VL: B1 VL with V30L, A50V, T52S, D93S, T94L
notes: Group I
B16: 370_B06 (antibody, V domains shown)
VH: B1 VH with N35H, S55G, N101T
VL: B1 VL with L47V, D93E
notes: Group II
B17: 370_B07 (antibody, V domains shown)
VH: B1 VH with N35H, G50N, T58K, N101T
VL: B1 VL with V30L, S31T, A55H, D93S, T94S
notes: Group II
B18: 370_D06 (antibody, V domains shown)
VH: B1 VH with G50S, S55G
VL: B1 VL with V30I, V33L, L47V, R54L, D93S, T94S
notes: Group I
B19: 370_E12 (antibody, V domains shown)
VH: B1 VH with S30D, N35H, S55G, N101T
VL: B1 VL with V30L, D93E, T94N
notes: Group II
B20: 370_G04 (antibody, V domains shown)
VH: B1 VH with N35H, A49S, S55G, S59G, H106A
VL: B1 VL with V30L, D93S
notes: Group I
B21: 370_H05 (antibody, V domains shown)
VH: B1 VH with N35H, A49S, G50N, S55G, N101T
VL: B1 VL with V30L, V33L, T52S, R54L, A55Q, Y92D, D93S, T94L
notes: Group II
B22: 370_H08 (antibody, V domains shown)
VH: B1 VH with N35H, G50S, S55G
VL: B1 VL with V30L, A55H, D93S, T94L
notes: Group I
B23: 371_A04 (antibody, V domains shown)
VH: B1 VH with S30D, A49S, G50S, S59G, H106A
VL: B1 VL with V30L, S31T, V33L, A51V
notes: Group I
B24: 371_A05 (antibody, V domains shown)
VH: B1 VH with N35H, A49S, G50N, S55G, T58K, N101T
VL: B1 VL with V30L, S31T, V33L, Y92D, D93N, T94L
notes: Group II
B25: 371_A09 (antibody, V domains shown)
VH: B1 VH with A49S, S55G, T58K, H106A
VL: B1 VL with S31T, L47V, T94S
notes: Group I
B26: 371_B02 (antibody, V domains shown)
VH: B1 VH with S30D, A49S, G50N, S55G, N101T
VL: B1 VL with V30L, S31T, L47V, R54L, D93N, T94N
notes: Group II
Note: test concentration or dose not given here.

The binders below were run against T1, human ACVR2A (human, UniProt P27037 20-135, limits assumed) (assay: ELISA).
T1 construct: also called activin receptor, type II A
T1 sequence (P27037 20-135 limits assumed): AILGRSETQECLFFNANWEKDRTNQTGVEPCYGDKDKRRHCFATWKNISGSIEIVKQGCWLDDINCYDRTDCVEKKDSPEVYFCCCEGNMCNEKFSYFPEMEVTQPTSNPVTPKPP
Summary of the method: (§1)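 mAb binding by ELISA; antigens: hu ACVR2A, mu ACVR2A; pos ctrl biotinylated goat anti-hu kappa LC; neg ctrl hu Fc.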
B1 was tested, and the optical density was 2.25 OD. With B2 the optical density was 2.1 OD. With B3 the optical density was 2.44 OD. For B4, the optical density was 2.76 OD. For B5, the optical density was 3.17 OD. With B6 the optical density was 3.32 OD. For B7, the optical density was 2.63 OD. B8 showed an optical density of 2.75 OD. With B9 the optical density was 2.75 OD. Binder B10 has an optical density of 2.88 OD. In the case of B11, the optical density is reported as 2.8 OD. Work on B12 yielded an optical density of 3.15 OD. For B13, the optical density was 3.37 OD. B14 was tested, and the optical density was 2.83 OD. B15 showed an optical density of 3.38 OD. In the case of B16, the optical density is reported as 2.88 OD. Binder B17 has an optical density of 1.91 OD. Binder B18 has an optical density of 2.26 OD. With B19 the optical density was 3.39 OD. In the case of B20, the optical density is reported as 1.82 OD. B21 showed an optical density of 2.94 OD. Binder B22 has an optical density of 2.94 OD. In the case of B23, the optical density is reported as 1.01 OD. B24 was tested, and the optical density was 3.05 OD. B25 showed an optical density of 1.85 OD. Work on B26 yielded an optical density of 2 OD.

What follows are binders tested against mouse ACVR2A (mouse, UniProt P27038 20-135, limits assumed) (assay: ELISA).
mouse ACVR2A, sequence (P27038 20-135 limits assumed): as the sequence (P27037 20-135 limits assumed) above, with K20R, V73I counted along it
Summary of the method: as §1
B1 gave an optical density of 2.6 OD. Work on B2 yielded an optical density of 2.37 OD. With B3 the optical density was 2.73 OD. B4 was tested, and the optical density was 2.86 OD. B5 gave an optical density of 3.24 OD. With B6 the optical density was 3.31 OD. Work on B7 yielded an optical density of 2.9 OD. Work on B8 yielded an optical density of 2.88 OD. In the case of B9, the optical density is reported as 3.06 OD. With B10 the optical density was 3.05 OD. B11 showed an optical density of 2.91 OD. B12 gave an optical density of 3.36 OD. Binder B13 has an optical density of 3.29 OD. Binder B14 has an optical density of 3.08 OD. Binder B15 has an optical density of 3.47 OD. Binder B16 has an optical density of 3.09 OD. Work on B17 yielded an optical density of 2.2 OD. With B18 the optical density was 2.66 OD. For B19, the optical density was 3.44 OD. B20 gave an optical density of 2.12 OD. B21 was tested, and the optical density was 3.14 OD. In the case of B22, the optical density is reported as 3.24 OD. In the case of B23, the optical density is reported as 1.17 OD. B24 showed an optical density of 3.24 OD. In the case of B25, the optical density is reported as 2 OD. Work on B26 yielded an optical density of 2.28 OD.

Each binder was assayed against T2, biotinylated goat anti-human kappa light chain (assay: ELISA, positive control).
T2 construct: positive control of the ELISA
Summary of the method: as §1
Binder B1 has an optical density of 3.52 OD. Work on B2 yielded an optical density of 3.5 OD. With B3 the optical density was 3.56 OD. Work on B4 yielded an optical density of 3.5 OD. In the case of B5, the optical density is reported as 3.72 OD. Binder B6 has an optical density of 3.52 OD. B7 was tested, and the optical density was 3.39 OD. Binder B8 has an optical density of 3.29 OD. Binder B9 has an optical density of 3.17 OD. Work on B10 yielded an optical density of 3.41 OD. B11 showed an optical density of 3.48 OD. In the case of B12, the optical density is reported as 3.37 OD. B13 showed an optical density of 3.49 OD. Work on B14 yielded an optical density of 3.47 OD. With B15 the optical density was 3.75 OD. In the case of B16, the optical density is reported as 3.37 OD. Binder B17 has an optical density of 3.48 OD. B18 was tested, and the optical density was 3.48 OD. Binder B19 has an optical density of 3.66 OD. Work on B20 yielded an optical density of 3.51 OD. In the case of B21, the optical density is reported as 3.61 OD. Binder B22 has an optical density of 3.65 OD. In the case of B23, the optical density is reported as 3.53 OD. B24 was tested, and the optical density was 3.6 OD. In the case of B25, the optical density is reported as 3.62 OD. B26 gave an optical density of 3.59 OD.
